Data: publication PMC11535546

Target: VASP (UniProt P50552)
Assay: co-immunoprecipitation, immunoblot
Conditions: reference: wild-type Zyxin; sites S142,S143

## Zyxin (from UniProt Q15942) Zyxin S142A/S143A
  binding against the reference: lost
